Test results as given in paper PMC2780912.

Experiments:
[1] = biological target: HCV E2 on E2-CT26 cells (Hepatitis C virus (genotype 1a)) (UniProt P27958); assay: flow cytometry; settings: Flow cytometry: 250 nM aptamer, 1e6 cells, 37 C 15 min; selection buffer 25 mM Tris-HCl, 50 mM KCl, 200 mM NaCl, 0.2 mM EDTA, 5% glycerol, 0.5 mM DTT (pH not …)
[2] = biological target: GST-E2 (Hepatitis C virus) (UniProt P27958); assay: competition (flow cytometry); settings: Flow cytometry: 250 nM aptamer, 1e6 cells, 37 C 15 min; selection buffer 25 mM Tris-HCl, 50 mM KCl, 200 mM NaCl, 0.2 mM EDTA, 5% glycerol, 0.5 mM DTT (pH not …); scale: % inhibition of E2 binding to Huh7.5.1 cells

| Sequence | Kd [1] [nM] | binding signal [2] |
| --- | --- | --- |
| CGCCGTATTAAGATTGGGAGACCTGGTAGA [ZE3] | 3.22 |  |
| GAATGAGGAATAATCTAGCTCCTTCGCTGA [ZE2] | 1.05 | 80 |
| GGGCCTCGATTTAGTTCGCGGCCATAGGGC [ZE4] | 8.85 |  |
| TCCATTCATGTAACGAACATAGTTTTGGCA [ZE5] | 4.29 |  |
